Experimental data: publication PMC6755090

B1: MotA (natural protein, bacteriophage T4, UniProt P22915 1-211, looked up)
chain: MSKVTYIIKASNDVLNEKTATILITIAKKDFITAAEVREVHPDLGNAVVNSNIGVLIKKGLVEKSGDGLIITGEAQDIISNAATLYAQENAPELLKKRATRKAREITSDMEEDKDLMLKLLDKNGFVLKKVEIYRSNYLAILEKRTNGIRNFEINNNGNMRIFGYKMMEHHIQKFTDIGMSCKIAKNGNVYLDIKRSAENIEAVITVASEL
notes: synthetic gene in pET21a; source: E. coli BL21(DE3), plasmid pET21a-MotA, purified (HiTrap Heparin, Mono S)
B2: AsiA (natural protein, bacteriophage T4)
chain: MNKNIDTVREIITVASILIKFSREDIVENRANFIAFLNEIGVTHEGRKLNQNSFRKIVSELTQEDKKTLIDEFNEGFEGVYRYLEMYTNK
notes: AsiA, anti-sigma 70 protein of bacteriophage T4; synthetic gene in pET28a; A6 is the C-terminal helix; also called AisA; N-hexahistidine-tagged AsiA; source: E. coli BL21(DE3), plasmid pET28a-NH-AsiA, purified (Ni-NTA, Mono Q)
B3: irrelevant DNA scaffold (FP) (dsDNA)
DNA 1: GCAAATGAGCAACA
DNA 2: TGTTGCTCATTTGC

Columns and labels:
Escherichia coli σ^70 = target: T1, Escherichia coli σ^70 (Escherichia coli, UniProt P00579 1-613); test: cryo-EM structure; σ appropriation complex assembled from σ^70, AsiA, RNAP core enzyme, MotA and a P_(uvsX) DNA scaffold, purified on Superose 6 in 10 mM HEPES pH 7.5, 50 mM KCl; 8 mM CHAPSO added; 3.79 Å; conditions: both partners purified
T1 construct: RNA polymerase sigma factor σ^70 (RpoD) of Escherichia coli; holds σR2, σR3, σR3.2 and σR4 (helices S1-S5); also called principle σ factor
T1 sequence (P00579 whole entry): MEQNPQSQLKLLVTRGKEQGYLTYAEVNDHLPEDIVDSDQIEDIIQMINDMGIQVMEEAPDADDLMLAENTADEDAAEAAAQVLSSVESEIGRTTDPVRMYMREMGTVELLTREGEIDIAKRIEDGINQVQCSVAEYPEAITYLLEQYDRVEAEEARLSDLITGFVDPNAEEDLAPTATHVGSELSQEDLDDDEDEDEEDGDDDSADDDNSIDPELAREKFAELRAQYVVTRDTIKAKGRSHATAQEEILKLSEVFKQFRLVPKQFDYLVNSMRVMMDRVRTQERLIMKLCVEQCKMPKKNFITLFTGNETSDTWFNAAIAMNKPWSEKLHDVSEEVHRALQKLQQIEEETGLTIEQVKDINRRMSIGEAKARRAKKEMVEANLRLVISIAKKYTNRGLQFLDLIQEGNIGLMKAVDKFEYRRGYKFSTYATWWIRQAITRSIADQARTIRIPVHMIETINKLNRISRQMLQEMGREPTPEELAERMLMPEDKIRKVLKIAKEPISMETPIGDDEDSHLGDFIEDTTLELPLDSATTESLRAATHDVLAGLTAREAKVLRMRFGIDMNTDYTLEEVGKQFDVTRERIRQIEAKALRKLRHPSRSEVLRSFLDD

AsiA = target: T2, AsiA (bacteriophage T4, UniProt P32267 1-90); test: fluorescence polarization; comparable affinity to the promoter scaffold; KD only in figure; FP: 10 mM HEPES pH 7.5, 50 mM KCl, 25°C, 0.1 μM DNA, 0-100 μM AsiA; EMSA: 7 mM Tris-HCl and 50 mM Tris-Ac pH 7.9, 0.19 M KGlu, 5 mM MgAc2, 50 mM K-phosphate pH; conditions: protein: recombinant; tags: N-His6; label: 5' 6-FAM
T2 sequence: B2 chain

| Binder | binding result (Escherichia coli σ^70) | binding result (AsiA) |
| --- | --- | --- |
| B1 | binds |  |
| B2 | binds |  |
| B3 |  | binds |
